Broadly, the stoichiometry N is the number of molecules, sites or subunits per partner or assembly.

The text below walks through data of publication PMC5833700, “MIF inhibits the formation and toxicity of misfolded SOD1 amyloid aggregates: implications for familial ALS” (Cell Death & Disease, 2018).

Data set [1] has as its target T1, poly-histidine tagged apo-SOD1^WT (human, UniProt P00441 1-154).
T1 construct: Cu/Zn superoxide dismutase (SOD1), human, wild type, codon-optimised, in the pHIS1 vector; Apo form; It was captured on the tris-NTA chip by its His tag; also called Cu/Zn superoxide dismutase; source: E. coli BL21, purified (HisTrap FF); not shown: His6, N-terminal, kept
Put plainly: SPR; ProteOn XPR36; poly-histidine tagged apo-SOD1^WT (1 µg, 736 RU) immobilised on tris-NTA HTG chip; MIF as analyte, 31-1000 nM, 25 µl/min; PBST (PBS 300 mM NaCl, 0.05% Tween-20); 25 °C; HTB1 channel subtracted; apparent affinity from steady-state values. Particulars: both partners purified. On the technique in general: Surface plasmon resonance follows binding to a sensor surface in real time, without labels.

Data set [2] deals with the molecule itself. Briefly: SDS-PAGE without prior crosslinking; 10 µM recombinant MIF, non-crosslinked control; sample buffer without β-mercaptoethanol; 13% SDS-PAGE and anti-MIF immunoblot.

T1 sequence (P00441 whole entry): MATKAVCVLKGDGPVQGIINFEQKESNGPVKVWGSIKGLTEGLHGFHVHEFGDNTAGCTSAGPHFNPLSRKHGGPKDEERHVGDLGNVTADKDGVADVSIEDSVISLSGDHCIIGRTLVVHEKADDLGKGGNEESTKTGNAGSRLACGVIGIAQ

B1: macrophage migration inhibitory factor, wild type (MIF^WT) (natural protein, human, UniProt P14174 1-115, looked up)
chain: MPMFIVNTNVPRASVPDGFLSELTQQLAQATGKPPQYIAVHVVPDQLMAFGGSSEPCALCSLHSIGKIGGAQNRSYSKLLCGLLAERLRISPDRVYINYYDMNAANVGWNNSTFA
notes: No tag is mentioned; Surmise: the initiator methionine is removed in E. coli, since tautomerase activity was measured; also called recombinant MIF; hMIF; source: E. coli BL21 (DE3), purified (Capto Q anion exchange, Capto S cation exchange)
Take B1: in data set [1], the Kd stood at 1300 nM.

B2: locked-trimeric MIF mutant MIF^N110C (natural protein)
chain: PMFIVNTNVPRASVPDGFLSELTQQLAQATGKPPQYIAVHVVPDQLMAFGGSSEPCALCSLHSIGKIGGAQNRSYSKLLCGLLAERLRISPDRVYINYYDMNAANVGWNCSTFA
modifications: disulfide bridge of the introduced cysteine (N110C) with Cys-81 of an adjacent subunit
Turning to B2, in data set [2], the “stoichiometry N” value stood at 3. Also, the Kd in data set [1] came to 548 nM.
